Measurements as given in publication PMC11271386 (Analytical and Bioanalytical Chemistry, 2024).
Residue numbers refer to the chain shown, from its start.

B1: PFDN1 (natural protein, human (endogenous in HEK293T), UniProt O60925 1-122, looked up)
chain: MAAPVDLELKKAFTELQAKVIDTQQKVKLADIQIEQLNRTKKHAHLTDTEIMTLVDETNMYEGVGRMFILQSKEAIHSQLLEKQKIAEEKIKELEQKKSYLERSVKEAEDNIREMLMARRAQ
notes: PFDN1, prefoldin β subunit, human; also called prefoldin β subunit; source: endogenous, HEK293T lysate
B2: 14–3-3θ/YWHAQ (natural protein, human (endogenous in HEK293T), UniProt P27348 1-245, looked up)
chain: MEKTELIQKAKLAEQAERYDDMATCMKAVTEQGAELSNEERNLLSVAYKNVVGGRRSAWRVISSIEQKTDTSDKKLQLIKDYREKVESELRSICTTVLELLDKYLIANATNPESKVFYLKMKGDYFRYLAEVACGDDRKQTIDNSQGAYQEAFDISKKEMQPTHPIRLGLALNFSVFYYEILNNPELACTLAKTAFDEAIAELDTLNEDSYKDSTLIMQLLRDNLTLWTSDSAGEECDAAEGAEN
notes: 14-3-3 theta (YWHAQ), human; source: endogenous, HEK293T lysate

Experiments:
[1] = target: T1, ^FlagDNAJB8^H31Q (human, UniProt Q8NHS0 1-232, H31Q); experiment: affinity purification with mass spectrometry; TMT-AP-MS comparing four conditions: ^FlagDNAJB8 WT vs. H31Q, with or without 1 mM DSP crosslinking of the cells before lysis; RIPA lysis and washes, M2 anti-Flag beads; crosslinks reversed with TCEP; three biological replicates; conditions: partners not purified
T1 construct: DNAJB8, human Class B Hsp40, with the J-domain mutation H31Q; source: HEK293T, transfected (calcium phosphate), in lysate
T1 sequence (looked up): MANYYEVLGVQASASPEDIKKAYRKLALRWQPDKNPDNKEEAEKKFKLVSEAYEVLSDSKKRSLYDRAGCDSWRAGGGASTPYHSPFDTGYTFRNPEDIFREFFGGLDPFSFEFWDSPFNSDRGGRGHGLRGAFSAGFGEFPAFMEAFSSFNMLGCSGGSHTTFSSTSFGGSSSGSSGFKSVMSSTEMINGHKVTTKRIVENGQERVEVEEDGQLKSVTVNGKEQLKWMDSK

[2] = target: T2, ^FlagDNAJB8^WT (human, UniProt Q8NHS0 1-232); experiment: as above; conditions: partners not purified
T2 construct: DNAJB8, human Class B Hsp40 (J-domain protein); also called Hsp40 DNAJB8; source: HEK293T, transfected (calcium phosphate), in lysate
T2 sequence (looked up): T1 sequence (looked up) with Q31H

Binder	fold change of recovery with DNAJB8^H31Q compared to DNAJB8^WT, −DSP [1] [fold]	fold change recovery with DSP crosslinking against without [1] [%]	fold change recovery with DSP crosslinking against without [2] [%]
B1	3.4 ± 0.9	–	–
B2	–	3.2 ± 0.8	4.8 ± 0.7
